Like-named read-outs stand apart in the source and are kept apart here.
Key:
[1] = target: T1, cynomolgus SIRPα extracellular domain + His-tag (EGM_02252) (cynomolgus monkey); assay: SPR, Ab captured, ECD-His analyte
T1 construct: also called CySIRPα EGM_02252; cynoSIRPα
T1 chain: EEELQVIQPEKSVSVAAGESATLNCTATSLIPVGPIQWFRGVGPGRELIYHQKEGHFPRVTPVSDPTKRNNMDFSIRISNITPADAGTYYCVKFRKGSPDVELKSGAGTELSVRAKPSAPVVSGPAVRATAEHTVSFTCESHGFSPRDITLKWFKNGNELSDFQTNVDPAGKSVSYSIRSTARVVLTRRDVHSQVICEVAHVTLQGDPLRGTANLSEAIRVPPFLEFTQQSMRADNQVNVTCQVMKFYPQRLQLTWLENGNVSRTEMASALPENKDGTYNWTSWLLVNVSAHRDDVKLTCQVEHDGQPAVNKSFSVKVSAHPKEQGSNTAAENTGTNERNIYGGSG
Experimental: (§1) The binding affinity of anti-SIRPα antibodies to the various SIRPα analytes is determined by surface plasmon resonance (SPR) using a ProteOn XPR36 (Bio-Rad). The running buffer for this experiment and all dilutions (except where stated) are done in 1×HBS-EP+. […] The sensorchip is deactivated with 1M ethanolamine HCl for 420 sec at a flowrate of 10 μl/min.
(§2) The analyte is injected over the captured antibody for 300 sec at a flowrate of 30 μl/min. The dissociation is done for 600 sec. Two-fold serial dilutions of each SIRP protein (Extracellular Domain+His-Tag) are injected as analyte with the highest concentrations indicated in table 36 below.

[2] = target: T2, cynomolgus SIRPα extracellular domain + His-tag (XP_015313155) (cynomolgus monkey); assay: SPR, Ab captured, ECD-His analyte
T2 construct: also called CySIRPα XP_015313155; cynoSIRPα
T2 chain: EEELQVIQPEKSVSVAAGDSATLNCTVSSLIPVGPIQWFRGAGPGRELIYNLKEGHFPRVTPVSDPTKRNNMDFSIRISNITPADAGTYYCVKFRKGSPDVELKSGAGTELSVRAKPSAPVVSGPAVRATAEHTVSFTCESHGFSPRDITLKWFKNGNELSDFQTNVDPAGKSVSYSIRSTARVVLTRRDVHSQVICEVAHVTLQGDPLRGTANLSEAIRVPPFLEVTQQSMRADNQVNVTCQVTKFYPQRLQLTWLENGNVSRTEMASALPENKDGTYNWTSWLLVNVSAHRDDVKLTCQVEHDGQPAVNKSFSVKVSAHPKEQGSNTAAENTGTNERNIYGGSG
Experimental: as §1, §2

[3] = target: T3, cynomolgus SIRPβ1 extracellular domain + His-tag (XP_005568598) (cynomolgus monkey); assay: SPR, Ab captured, ECD-His analyte
T3 construct: also called Cyno SIRPβ1; cynoSIRPβ1
T3 chain: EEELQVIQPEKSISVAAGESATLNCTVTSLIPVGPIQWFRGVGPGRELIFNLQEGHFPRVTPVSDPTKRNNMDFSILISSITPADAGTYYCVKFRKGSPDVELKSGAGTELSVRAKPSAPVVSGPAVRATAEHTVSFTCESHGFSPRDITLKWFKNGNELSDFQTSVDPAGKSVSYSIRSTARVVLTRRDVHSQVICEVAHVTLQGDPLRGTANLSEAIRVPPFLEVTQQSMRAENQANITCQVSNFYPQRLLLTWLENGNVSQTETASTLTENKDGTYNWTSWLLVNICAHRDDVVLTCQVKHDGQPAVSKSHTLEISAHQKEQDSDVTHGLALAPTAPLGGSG
Experimental: as §1, §2

[4] = target: T4, cynomolgus SIRPβ1v3 extracellular domain + His-tag (XP_005568593) (cynomolgus monkey); assay: SPR, Ab captured, ECD-His analyte
T4 construct: also called Cyno SIRPβ1v3; cynoSIRPβ1v3
T4 chain: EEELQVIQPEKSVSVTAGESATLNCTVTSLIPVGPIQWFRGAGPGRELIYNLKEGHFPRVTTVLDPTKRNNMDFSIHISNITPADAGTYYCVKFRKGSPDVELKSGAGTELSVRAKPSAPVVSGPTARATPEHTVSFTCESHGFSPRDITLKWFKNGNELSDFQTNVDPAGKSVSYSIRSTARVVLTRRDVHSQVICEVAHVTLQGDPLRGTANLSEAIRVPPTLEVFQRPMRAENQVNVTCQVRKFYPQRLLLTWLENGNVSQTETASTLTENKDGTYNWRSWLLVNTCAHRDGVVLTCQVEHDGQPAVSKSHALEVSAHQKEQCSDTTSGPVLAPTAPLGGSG
Experimental: as §1, §2

[5] = target: T5, cynomolgus SIRPγ extracellular domain + His-tag (XP_005568591) (cynomolgus monkey, UniProt Q9P1W8 29-359 (human entry)); assay: SPR, Ab captured, ECD-His analyte
T5 construct: also called Cyno SIRPγ; cynoSIRPγ
T5 chain: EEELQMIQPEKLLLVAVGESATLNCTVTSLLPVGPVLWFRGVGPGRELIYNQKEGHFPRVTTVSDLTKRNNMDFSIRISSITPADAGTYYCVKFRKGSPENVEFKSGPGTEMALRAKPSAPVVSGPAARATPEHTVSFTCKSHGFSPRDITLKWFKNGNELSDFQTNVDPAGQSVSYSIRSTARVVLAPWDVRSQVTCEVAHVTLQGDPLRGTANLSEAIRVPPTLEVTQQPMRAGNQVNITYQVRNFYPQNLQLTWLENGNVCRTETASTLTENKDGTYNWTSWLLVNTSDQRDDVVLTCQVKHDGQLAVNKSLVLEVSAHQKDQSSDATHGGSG
Experimental: as §1, §2

[6] = target: T6, human SIRPβ1 extracellular domain + His-tag (NP_006056.2) (human, UniProt O00241 30-371); assay: SPR, Ab captured, ECD-His analyte
T6 construct: also called hSIRPβ1; HuSIRPβ1
T6 sequence (O00241 other isoform, or with tags, fused parts or gaps): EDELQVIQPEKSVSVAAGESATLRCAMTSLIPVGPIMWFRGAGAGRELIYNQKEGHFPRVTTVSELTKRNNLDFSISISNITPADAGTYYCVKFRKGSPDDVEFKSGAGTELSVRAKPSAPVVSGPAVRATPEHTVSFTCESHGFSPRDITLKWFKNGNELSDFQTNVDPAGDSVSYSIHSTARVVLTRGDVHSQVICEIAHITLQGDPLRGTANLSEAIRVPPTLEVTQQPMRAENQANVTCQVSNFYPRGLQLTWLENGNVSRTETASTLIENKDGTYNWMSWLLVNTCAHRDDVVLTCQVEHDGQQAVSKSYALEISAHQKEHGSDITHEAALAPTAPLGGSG
Experimental: as §1, §2

[7] = target: T7, human SIRPβL/SIRPβ1v3 extracellular domain + His-tag (NP_001129316.1) (human, UniProt Q5TFQ8 30-371); assay: SPR, Ab captured, ECD-His analyte
T7 construct: also called hSIRPβ1v3; HuSIRPβ1v3
T7 sequence (Q5TFQ8 other isoform, or with tags, fused parts or gaps): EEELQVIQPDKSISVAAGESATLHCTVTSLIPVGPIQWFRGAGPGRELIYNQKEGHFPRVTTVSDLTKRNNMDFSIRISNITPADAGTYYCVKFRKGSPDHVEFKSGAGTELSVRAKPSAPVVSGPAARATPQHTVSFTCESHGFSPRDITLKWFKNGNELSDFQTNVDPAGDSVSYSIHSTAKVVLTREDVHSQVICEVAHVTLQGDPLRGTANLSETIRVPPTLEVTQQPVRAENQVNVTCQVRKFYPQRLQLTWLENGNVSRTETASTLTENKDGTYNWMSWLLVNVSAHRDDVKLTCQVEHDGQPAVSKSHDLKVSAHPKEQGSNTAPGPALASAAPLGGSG
Experimental: as §1, §2

[8] = target: T8, human SIRPγ extracellular domain + His-tag (NP_061026.2) (human, UniProt Q9P1W8 29-360); assay: SPR, Ab captured, ECD-His analyte
T8 construct: also called hSIRPγ; HuSIRPγ
T8 sequence (Q9P1W8 29-360): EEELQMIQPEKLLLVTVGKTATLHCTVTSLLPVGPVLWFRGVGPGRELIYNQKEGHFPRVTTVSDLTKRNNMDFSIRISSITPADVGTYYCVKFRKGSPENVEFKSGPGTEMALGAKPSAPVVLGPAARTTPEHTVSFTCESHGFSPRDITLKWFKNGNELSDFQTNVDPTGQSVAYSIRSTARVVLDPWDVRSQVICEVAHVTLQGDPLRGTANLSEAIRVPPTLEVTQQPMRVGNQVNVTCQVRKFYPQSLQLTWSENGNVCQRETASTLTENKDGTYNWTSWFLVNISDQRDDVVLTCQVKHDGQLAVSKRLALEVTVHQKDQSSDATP
Experimental: as §1, §2

[9] = target: full-length human SIRPβ1 D→H on Expi-CHO cells (human, UniProt O00241 30-398); assay: flow cytometry, Expi-CHO cells
Chain of full-length human SIRPβ1 D→H on Expi-CHO cells (O00241 30-398 D130H): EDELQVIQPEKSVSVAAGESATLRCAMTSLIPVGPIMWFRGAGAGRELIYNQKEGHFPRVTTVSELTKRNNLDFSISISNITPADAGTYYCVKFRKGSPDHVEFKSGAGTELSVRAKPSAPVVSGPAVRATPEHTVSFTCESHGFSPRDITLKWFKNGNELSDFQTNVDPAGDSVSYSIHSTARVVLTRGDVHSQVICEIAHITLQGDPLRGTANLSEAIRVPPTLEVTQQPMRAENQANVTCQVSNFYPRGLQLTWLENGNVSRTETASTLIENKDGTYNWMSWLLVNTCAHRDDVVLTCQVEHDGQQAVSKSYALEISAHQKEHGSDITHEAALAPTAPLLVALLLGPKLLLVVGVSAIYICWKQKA
Experimental: These cells are blocked with donkey IgG and incubated on ice with increasing concentrations of antibodies for 60 minutes, washed and stained with AF647-conjugated donkey F(ab′)₂ anti-human IgG antibodies. Stained cells are washed, fixed, and analyzed by flow cytometry. Median fluorescent intensity is determined and used as a measure of antibody binding.

[10] = target: T9, human SIRPαV1 extracellular domain + His-tag (NP_542970.1) (human, UniProt P78324 31-373); assay: SPR, Ab captured, ECD-His analyte
T9 construct: also called hSIRPαV1; HuSIRPαV1
T9 sequence (P78324 other isoform, or with tags, fused parts or gaps): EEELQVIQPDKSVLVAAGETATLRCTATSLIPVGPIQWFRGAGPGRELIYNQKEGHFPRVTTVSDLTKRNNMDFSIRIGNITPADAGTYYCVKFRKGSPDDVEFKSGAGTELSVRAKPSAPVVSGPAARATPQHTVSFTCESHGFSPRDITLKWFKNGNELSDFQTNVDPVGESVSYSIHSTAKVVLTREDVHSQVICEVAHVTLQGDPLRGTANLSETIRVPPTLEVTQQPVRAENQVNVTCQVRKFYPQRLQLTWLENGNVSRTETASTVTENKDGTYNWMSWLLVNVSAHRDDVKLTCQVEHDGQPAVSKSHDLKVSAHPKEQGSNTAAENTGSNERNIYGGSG
Experimental: as §1, §2

[11] = target: T10, human SIRPαV2 extracellular domain + His-tag (CAA71403.1) (human, UniProt P78324 31-373); assay: SPR, Ab captured, ECD-His analyte
T10 construct: also called hSIRPαV2; HuSIRPαV2
T10 sequence (P78324 other isoform, or with tags, fused parts or gaps): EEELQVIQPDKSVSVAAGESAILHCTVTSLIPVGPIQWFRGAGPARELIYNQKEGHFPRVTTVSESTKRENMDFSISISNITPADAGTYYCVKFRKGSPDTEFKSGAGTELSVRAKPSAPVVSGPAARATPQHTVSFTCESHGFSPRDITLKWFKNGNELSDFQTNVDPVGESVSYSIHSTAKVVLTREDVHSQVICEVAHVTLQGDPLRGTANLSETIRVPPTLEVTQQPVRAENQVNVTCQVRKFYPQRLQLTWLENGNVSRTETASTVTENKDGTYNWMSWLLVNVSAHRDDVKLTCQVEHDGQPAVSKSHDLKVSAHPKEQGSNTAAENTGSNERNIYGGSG
Experimental: as §1, §2

[12] = target: T6, human SIRPβ1 extracellular domain + …; assay: SPR, Ab captured, ECD-His analyte; remark: listed apart in the source
Experimental: as §1, §2

[13] = target: T11, mouse SIRPα extracellular domain + His-tag (NP_031573) (mouse, UniProt P97797 32-373); assay: SPR, Ab captured, ECD-His analyte
T11 chain: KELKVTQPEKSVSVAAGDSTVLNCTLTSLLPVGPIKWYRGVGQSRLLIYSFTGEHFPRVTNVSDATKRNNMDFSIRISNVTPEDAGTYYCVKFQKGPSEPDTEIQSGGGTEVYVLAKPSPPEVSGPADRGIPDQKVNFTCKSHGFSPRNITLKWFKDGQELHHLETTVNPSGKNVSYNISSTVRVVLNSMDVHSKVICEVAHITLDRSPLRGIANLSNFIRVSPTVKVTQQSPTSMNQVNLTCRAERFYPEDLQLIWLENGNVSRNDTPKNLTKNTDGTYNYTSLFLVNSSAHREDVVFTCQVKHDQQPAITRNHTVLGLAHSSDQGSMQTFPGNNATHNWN
Experimental: as §1, §2

[14] = target: T12, cynomolgus SIRPα extracellular domain + His-tag (NP_001271679) (cynomolgus monkey); assay: SPR, Ab captured, ECD-His analyte
T12 construct: also called CySIRPα NP_001271679; cynoSIRPα
T12 chain: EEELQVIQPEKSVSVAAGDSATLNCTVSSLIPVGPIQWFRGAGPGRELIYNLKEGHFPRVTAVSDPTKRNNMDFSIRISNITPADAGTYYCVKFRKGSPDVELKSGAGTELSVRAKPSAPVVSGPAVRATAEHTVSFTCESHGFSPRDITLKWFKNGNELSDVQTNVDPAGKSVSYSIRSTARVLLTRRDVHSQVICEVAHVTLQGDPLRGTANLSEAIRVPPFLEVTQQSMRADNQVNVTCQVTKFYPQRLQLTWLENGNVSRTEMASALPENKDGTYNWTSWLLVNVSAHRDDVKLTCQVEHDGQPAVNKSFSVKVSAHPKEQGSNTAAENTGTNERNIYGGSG
Experimental: as §1, §2

B1: Antibody A14 (antibody, human IgG1, kappa, L234A L235A, V domains shown)
VH: EVQLVESGGGLVQPGGSLRLSCAASGFTLSSYDMHWVRQAPGKGLEWVSAIGTAGDTYYTGSVKGRFTISRENAKNSLYLQMNSLRASDTAVYYCVRGGVWDDAFDIWGQGTMVTVSS
VL: DIQMTQSPSSLSASVGDRVTITCRASQDINNYLAWFQQKPGKAPKSLIYTASSLHSGVPSKFSGSGSGTDFTLTISSLQPEDFATYYCQQYVSYPYTFGQGTKLEIKR
- Kd [1]: 222 nM
- Kd [2]: 153 nM
- binding result [3]: no binding (tested: 1000 nM)
- Kd [4]: 235 nM
- binding result [5]: no binding (tested: 1000 nM)
- Kd [6]: 58.3 nM
- binding result [7]: no binding (tested: 100 nM)
- binding result [8]: no binding (tested: 1000 nM)

B2: Antibody A5 (antibody, human IgG1, kappa, L234A L235A, V domains shown)
VH: EVQLVESGGGLVQPGGSLRLSCAASGFTLSSYDMHWVRQAPGKGLEWVSAIGTAGDTYYTGSVKGRFTISRENAKNSLYLQMNSLRASDTAVYYCVRGGVWDDAFDIWGQGTMVTVSS
VL: DIQMTQSPSSLSASVGDRVTITCRASQGINNYAAWFQQKPGKAPKSLIYTASSLHSGVPSKFSGSGSGTDFTLTISSLQPEDFATYYCQQYVSYPYTFGQGTKLEIKR
- Kd [1]: 533 nM
- Kd [2]: 347 nM
- binding result [3]: no binding (tested: 1000 nM)
- Kd [4]: 465 nM
- binding result [5]: no binding (tested: 1000 nM)
- Kd [6]: 64.2 nM
- binding result [7]: no binding (tested: 100 nM)
- binding result [8]: no binding (tested: 1000 nM)

B3: Antibody A16 (antibody, human IgG1, kappa, L234A L235A, V domains shown)
VH: EVQLVESGGGLVQPGGSLRLSCAASGFTLSSYDMHWVRQAPGKGLEWVSAIGTAGDTYYTGSVKGRFTISRENAKNSLYLQMNSLRAGDTAVYYCVRGGVWDDAFDIWGQGTMVTVSS
VL: DIQMTQSPSSLSASVGDRVTITCRASQDINNYLAWFQQKPGKAPKSLIYTASSLHSGVPSKFSGSGSGTDFTLTISSLQPEDFATYYCQQYVSYPYTFGQGTKLEIKR
- Kd [1]: 225 nM
- Kd [2]: 151 nM
- binding result [3]: no binding (tested: 1000 nM)
- Kd [4]: 225 nM
- binding result [5]: no binding (tested: 1000 nM)
- Kd [6]: 62.7 nM
- binding result [7]: no binding (tested: 100 nM)
- binding result [8]: no binding (tested: 1000 nM)

B4: Antibody C (antibody, human IgG1, kappa, L234A L235A, V domains shown)
VH: EVQLVESGGGLVQPGGSLRLSCAASGFTFSSYDMHWVRQATGKGLEWVSVIGIAGDTYYPGSVKGRFTISRENAKNSLYLQMNSLRVGDTAVYYCARGGSWDDAFDIWGQGTMVTVSS
VL: DIQMTQSPSSLSASIGDKVTITCRASQDINNYLAWFQQKPGKAPKSLIYTASSLQSGVPSKFSGSGSGTDFTLTISSLQPEDFATYYCQQYVSYPYTFGQGTKLEIKR
- binding result [9]: no binding
- Kd [10]: 0.627 nM
- Kd [11]: 0.0969 nM
- Kd [12]: 2.14 nM
- binding result [13]: no binding
- Kd [14]: 14.3 nM

B5: Antibody A15 (antibody, human IgG1, kappa, L234A L235A, V domains shown)
VH: EVQLVESGGGLVQPGGSLRLSCAASGFTLSSYDMHWVRQAPGKGLEWVSAIGTAGDTYYTGSVKGRFTISRENAKNSLYLQMNSLRAEDTAVYYCVRGGVWDDAFDIWGQGTMVTVSS
VL: DIQMTQSPSSLSASVGDRVTITCRASQDINNYLAWFQQKPGKAPKSLIYTASSLHSGVPSKFSGSGSGTDFTLTISSLQPEDFATYYCQQYVSYPYTFGQGTKLEIKR
- Kd [1]: 223 nM
- Kd [2]: 154 nM
- binding result [3]: no binding (tested: 1000 nM)
- Kd [4]: 232 nM
- binding result [5]: no binding (tested: 1000 nM)
- Kd [6]: 58.8 nM
- binding result [7]: no binding (tested: 100 nM)
- binding result [8]: no binding (tested: 1000 nM)

— US20230012273A1 (Boehringer Ingelheim, published 2023)
